Measurements taken from patent publication US20150268247A1, “Assay for Screening of Anti-Viral Compounds That Inhibit Specific Interaction Interfaces Between Cullin5 and an ElonginB/ElonginC/ CBF-beta/HIV-1 Vif Complex” (UNIVERSITY OF ROCHESTER, priority 2012, published 2015).

Columns and labels:
[1] = molecular target: mEGFP tagged quaternary complexes
[2] = molecular target: mEGFP tagged quaternary complexes; remark: listed apart in the source

Row | Substance | percent decrease in fluorescence (FRET quench) [1] [%] | percent quenching [2] [%]
1 | Cul5(N)-sREACh (human Cul5 residues 2-384 with V341R, L345D, C-terminally tagged with sREACh with F46L, Q69M, F223R) | 8 | 
2 | sREACh-Cul5(N) (sREACh with F46L, Q69M, F223R, flexible linker, human Cul5 residues 2-384 with V341R, L345D) |  | 20
